# Reference: US7728193B2, “Phytochrome-interacting protein and a use thereof” (Genomine Inc., priority 2004, dated 2010)
# How the values were obtained:
# [1] = target: T1, phytochrome B (Arabidopsis thaliana, UniProt P14713); test: In vitro binding assay (GST pull-down of 35S-labeled TnT protein); details: 1 μg GST-PAPP5 fusion protein, 4° C.
# T1 sequence (P14713 1-1172): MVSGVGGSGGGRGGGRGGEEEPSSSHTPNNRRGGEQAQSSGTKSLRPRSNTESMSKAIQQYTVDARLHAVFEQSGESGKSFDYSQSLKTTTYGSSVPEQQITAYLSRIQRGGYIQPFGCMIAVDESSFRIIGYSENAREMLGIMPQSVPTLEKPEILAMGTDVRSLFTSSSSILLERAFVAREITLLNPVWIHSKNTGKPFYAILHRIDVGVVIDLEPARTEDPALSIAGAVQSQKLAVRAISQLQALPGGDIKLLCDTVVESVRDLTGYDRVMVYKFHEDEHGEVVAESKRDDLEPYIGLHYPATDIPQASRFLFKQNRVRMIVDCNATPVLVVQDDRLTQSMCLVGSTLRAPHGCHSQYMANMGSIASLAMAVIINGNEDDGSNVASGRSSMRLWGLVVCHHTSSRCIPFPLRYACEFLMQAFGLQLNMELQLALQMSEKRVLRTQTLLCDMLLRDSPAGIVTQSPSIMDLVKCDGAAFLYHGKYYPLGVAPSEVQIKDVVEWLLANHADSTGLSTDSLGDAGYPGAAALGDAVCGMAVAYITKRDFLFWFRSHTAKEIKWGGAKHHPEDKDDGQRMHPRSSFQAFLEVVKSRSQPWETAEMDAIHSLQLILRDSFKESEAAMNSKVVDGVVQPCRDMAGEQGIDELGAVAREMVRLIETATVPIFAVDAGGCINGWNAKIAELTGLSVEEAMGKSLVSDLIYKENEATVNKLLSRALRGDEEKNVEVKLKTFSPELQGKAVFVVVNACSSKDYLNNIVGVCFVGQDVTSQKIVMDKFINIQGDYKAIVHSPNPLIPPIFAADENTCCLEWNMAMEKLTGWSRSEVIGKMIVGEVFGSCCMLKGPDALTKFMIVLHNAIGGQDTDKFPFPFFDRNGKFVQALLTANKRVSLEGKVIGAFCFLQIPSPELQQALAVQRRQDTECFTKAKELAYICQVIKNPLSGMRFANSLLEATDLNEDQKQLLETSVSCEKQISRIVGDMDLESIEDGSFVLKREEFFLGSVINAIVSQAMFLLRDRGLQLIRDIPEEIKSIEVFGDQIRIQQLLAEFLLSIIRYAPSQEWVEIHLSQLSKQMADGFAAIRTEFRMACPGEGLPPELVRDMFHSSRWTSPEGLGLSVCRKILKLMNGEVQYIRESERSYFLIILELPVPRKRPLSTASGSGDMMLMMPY
# T1 sequence (Q84XU2 1-484 isoform Q84XU2-2 partner): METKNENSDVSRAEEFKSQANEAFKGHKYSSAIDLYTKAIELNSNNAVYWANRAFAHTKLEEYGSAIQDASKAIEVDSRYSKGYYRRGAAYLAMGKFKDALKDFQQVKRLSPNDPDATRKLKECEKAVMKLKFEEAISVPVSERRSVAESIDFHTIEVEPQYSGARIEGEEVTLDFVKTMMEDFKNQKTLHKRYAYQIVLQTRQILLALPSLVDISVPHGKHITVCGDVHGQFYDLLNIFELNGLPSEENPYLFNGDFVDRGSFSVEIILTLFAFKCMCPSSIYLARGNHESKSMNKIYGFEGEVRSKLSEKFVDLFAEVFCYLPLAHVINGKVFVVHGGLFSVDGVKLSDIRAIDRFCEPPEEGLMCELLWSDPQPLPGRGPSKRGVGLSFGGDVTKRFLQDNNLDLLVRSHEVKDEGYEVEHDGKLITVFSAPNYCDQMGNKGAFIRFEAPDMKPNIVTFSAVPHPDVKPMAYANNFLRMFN
# [2] = test system: autophosphorylated oat phytochrome A; test: Dephosphorylation of autophosphorylated phytochrome by PAPP5 in vitro; type: biochemical; details: Rc 664 nm or FRc 748 nm irradiation for 5 minutes
# Procedure: First, KP buffer (20 mM Tris-HCl pH7.5, 30 mM MgCl2, 1 mM EDTA, 1 mM EGTA, 0.1% β-mercaptoethanol, 0.1% ethanol) containing 1 μg of purified oat phytochrome A (provided from Kumho Life and Environmental Science Laboratory, Korea) was set on ice and irradiated with Rc light output of 50 μmolS^−1m^−2 at 664 nm for 5 minutes. Then, the reaction solution was allowed to react with [γ-^32P]ATP in dark conditions for 30 minutes (autophosphorylation of phytochrome A). Following addition of 1 μg of each of the fusion proteins GST-PAPP5, GST-TPR and GST-PP2Ac prepared in Examples <4-1> and <5-1>, the reaction continued for more 30 minutes, and then stopped by adding 12 μl of 5× Tris-glycine SDS sample buffer under dim green safe light.
# Next, the present inventors investigated whether the phosphatase activity of PAPP5 depends on a change in the spectroscopic structure (photoconversion) of phytochrome molecules (Pr⇄Pfr). KP buffer solution containing phytochrome was set on ice and irradiated with a Rc light output of 50 μmolS^−1m^−2 at 664 nm (conversion of phytochrome into Pfr form) or a FRc light output of 50 μmolS^−1m^−2 at 748 nm (conversion of phytochrome into […]) for 5 minutes. Then, the autophosphylation/dephosphorylation test of phytochrome was performed in the same manner as described above.
substance,measurement,setting,value
"PAPP5: type 5 serine/threonine protein phosphatase of Arabidopsis thaliana interacting with phytochromes, SEQ ID NO: 4",binding to phytochrome B,[1],has the property of binding
same,dephosphorylation by PAPP5 according to the form of phytochrome (Pfr vs Pr),[2],higher in Pfr phytochrome
